{"source": "paper PMC5389526", "target": "T1, Cas1-Cas2 complex (native Cas1 + Cas2-His6) (Escherichia coli, UniProt Q46896;P45956 1-305;1-94)", "T1 sequence 1": "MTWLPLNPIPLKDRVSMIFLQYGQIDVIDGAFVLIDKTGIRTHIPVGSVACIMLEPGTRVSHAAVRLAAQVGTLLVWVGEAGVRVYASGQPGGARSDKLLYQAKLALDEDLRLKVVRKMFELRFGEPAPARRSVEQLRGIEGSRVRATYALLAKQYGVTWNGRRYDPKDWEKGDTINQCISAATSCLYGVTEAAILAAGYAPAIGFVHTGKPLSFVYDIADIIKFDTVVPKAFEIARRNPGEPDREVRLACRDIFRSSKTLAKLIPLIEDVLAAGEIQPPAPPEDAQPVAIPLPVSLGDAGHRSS", "T1 sequence 2": "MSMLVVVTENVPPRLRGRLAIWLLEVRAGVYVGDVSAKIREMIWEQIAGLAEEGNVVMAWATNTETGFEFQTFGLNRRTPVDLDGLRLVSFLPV", "assay": "EMSA", "data": [{"binder": "ATTTCAGCTACTCCGATGGCCCATATGCGGATT (ssDNA)", "note": "[S1 oligonucleotide]", "values": [{"measurement": "binding result", "result": "no binding"}]}, {"binder": "ATTTCAGCTACTCCGATGGCCCATATGCGGATC (ssDNA)", "note": "[S2 oligonucleotide]", "values": [{"measurement": "binding result", "result": "no binding"}]}]}
